Source: the supplement of paper PMC9112550, “Optimization of the antimicrobial peptide Bac7 by deep mutational scanning” (BMC Biology, 2022)

Tested on: Escherichia coli TOP10
Assay: shrunken log2 fold change of peptide-encoding DNA abundance (4.5 h post-induction vs induction); higher = less antimicrobial activity (less host growth inhibition)
Details: time post-induction: 4.5 h; library: site-saturation at positions 5, 18, 19, 20
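Note: peptides expressed intracellularly from a pBAD plasmid library in pooled LB shake-flask culture, induced with 0.3% L-arabinose, DNA abundance read by NGS, three biological replicates, DESeq2 with apeglm shrinkage.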

| Sequence | shrunken log2 fold change |
| --- | --- |
| RRIRYRPPRLPRPRPRPWFQPRP | -0.00061 |
| RRIRYRPPRLPRPRPRPWGGPRP | 0.011 |
| RRIRYRPPRLPRPRPRPWNWPRP | -0.252 |
| RRIRYRPPRLPRPRPRPWPPPRP | 0.194 |
| RRIRYRPPRLPRPRPRPWPVPRP | 0.0536 |
| RRIRYRPPRLPRPRPRPWQAPRP | -0.0293 |
| RRIRYRPPRLPRPRPRPWTCPRP | -0.362 |
| RRIRYRPPRLPRPRPRPWTLPRP | -0.0151 |
| RRIRYRPPRLPRPRPRPWTQPRP | -0.343 |
| RRIRYRPPRLPRPRPRPWTWPRP | -0.106 |
| RRIRYRPPRLPRPRPRPWVFPRP | -0.0309 |
| RRIRYRPPRLPRPRPRPWWAPRP | -0.19 |
| RRIRYRPPRLPRPRPRPWWLPRP | -0.0627 |
| RRIRYRPPRLPRPRPRPWYCPRP | -1.12 |
| RRIRYRPPRLPRPRPRPWYMPRP | -0.838 |
| RRIRYRPPRLPRPRPRPYCSPRP | -0.00208 |
| RRIRYRPPRLPRPRPRPYERPRP | -0.00804 |
| RRIRYRPPRLPRPRPRPYFSPRP | -1.16 |

| Sequence | shrunken log2 fold change |
| --- | --- |
| RRIRYRPPRLPRPRPRPYGMPRP | -0.438 |
| RRIRYRPPRLPRPRPRPYGTPRP | -0.0957 |
| RRIRYRPPRLPRPRPRPYKDPRP | -0.748 |
| RRIRYRPPRLPRPRPRPYKEPRP | 0.043 |
| RRIRYRPPRLPRPRPRPYKPPRP | -0.0475 |
| RRIRYRPPRLPRPRPRPYKQPRP | -0.025 |
| RRIRYRPPRLPRPRPRPYLKPRP | -0.478 |
| RRIRYRPPRLPRPRPRPYLSPRP | -0.274 |
| RRIRYRPPRLPRPRPRPYMFPRP | -0.651 |
| RRIRYRPPRLPRPRPRPYPEPRP | -0.173 |
| RRIRYRPPRLPRPRPRPYQWPRP | -0.257 |
| RRIRYRPPRLPRPRPRPYVHPRP | -1.05 |
| RRIRYRPPRLPRPRPRPYVNPRP | -0.361 |
| RRIRYRPPRLPRPRPRPYVYPRP | -0.26 |
| RRIRYRPPRLPRPRPRPYWFPRP | -0.142 |
| RRIRYRPPRLPRPRPRPYWYPRP | -0.322 |
| RRIRYRPPRLPRPRPRPYYKPRP | -0.534 |
| RRIRYRPPRLPRPRPRPYYQPRP | -0.462 |
